Measurements published in the supplement of paper PMC9170038.

system: K4 kissing-loop RNA reporter; assay: apparent KD of K4 kissing-loop reporter; higher = weaker reporter binding; settings: Eterna round: R107; input ligand: none
Description: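 RNA-MaP round R107: designed RNA switches with theophylline, tryptophan, arginine or FMN aptamers are transcribed on-chip within common flanks. They are titrated with a labelled K4 kissing-loop RNA reporter in RNA-MaP buffer (100 mM Tris pH 7.5, 80 mM KCl, 4 mM MgCl2), without ligand or with the indicated ligand. Median apparent KD per design.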
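Note: bound reporter read as fluorescence of individual clusters on recovered sequencing chips by microscopy, with normalized cluster intensities fitted with a binding model.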

Row | Sequence | apparent KD of K4 kissing-loop reporter [nM]
1 | GGGAGAAGAGCGGCCGCCACUCAGAAAGAAGAAGAAUAUAGUGAUGUUAUAUAGGAAAGGAAGAAGAGGACCGGGCUUAAGAGGG [#18 K4 Tryptophan B Same State] | 149
2 | GGGUUGAGCGGAAGGAGCGGCUGAACCAGUGAUGUUGGUUAAUCCAAGUGAUGUUGGAAAAGCCAGGUAGGUCGCCGCUUUAUCC [Same State Arg B GF 3] | 1180
3 | GGAUAGGACAGAGGAUAUGGUAGUGAUGUUACCAAACUGGUUACUCUUGUCAGAAAACUGGCAUCUCCAGAAGGCUGUCCUAUCG [KL-XFMN-B10] | 123
4 | AGGUACAAAAGUACCGCUAGAUCCACGGAAGGAGCGCGCGAAAGCGCAGGUAGGUCGCCGGGCAGUGAUGUUGCCGGAUCUAGCA [Omei KL Arginine A SS A v7] | 126
5 | CUGCCUCACUCGGCCGCCACUGUAUAAAUGUGACAGUGAUGUUGUCGUCGGAAAGGGCACUUAGGCAGGACCGGGAGUUUCAGGC [theeternabot_exclusion_KL_Trp_B_20] | 801
6 | AGACUACCACACUGUCAAUAGACAGUGAGCUAGGAUAUGCUGAUAAGCAGAAGGAGUGAUGUUCCUCGGUAGUCAAUAAAAUAAU [FmnAX 13 G29+C67] | 364
7 | ACGUCACGUAAACUCGUGGUUUCGAUCGAUACCAGUAGCGAGAGUUACCCUUGGCAGCGACAUGAGUGAUGUUCAUGUACGAAGA [KL-XTheoA1] | 97
8 | AGCGCCUAAGCCGAUACCAGAAACGCGGUGCGUCGCACGAUUAACUAGGAAAGUGAUGUUUUCCCUUGGCAGCGGGACCUGUGAG [theeternabot_exclusion_KL_Theo_B_11] | 134
9 | GGAUGCAUUUUGGAUACCAGUCUAGUGAUGUUAGACUGAUAAUAACGGGCAGCGUUGGCAGACCCUUGGCAGCCAAAAUACUUAA [theeternabot_exclusion_KL_Theo_B_33] | 54.8
10 | GCGCGGCACAGUGAUGUUGUGCCUCGGAGACGAGGACCGGUACGGCCGCCACUCGUCCGCGCAGCUGAGGCAAAAGCCUCGGCAA [Omei KL Tryp A SS B v4] | 473
11 | CCCGCGGCGGGAAACCGUCGCGGGAAGGAAGGAGCGGCGAAGAAGCCAGGUAGGUCGCCUAUUGACAGUGAUGUUGUUAUAUAGA [#11] | 160
12 | AGAGUUAUGCGAGGAUAUGCAGUUAGUACUCAAAGAGUACUAACGGCAGAGUGAUGUUCUGUGAAAGCAGAAGGUGCAUAACUCA [Omei KL FMN B SS B v8] | 1370
13 | UAGUCCUAGUGAUCGUUAUCACGUGGUGGGCGAGGACCGGUACGGCCGCCACUCGACUAUGCAGUGAUGUUGCAAUCCGGACAAU [Exclusion - Tryptophan A (Freestyle 15)] | 477
14 | ACGCCGAGGACGGCCGCCACUAUGACGAAGUCCGUUCCUAUUACUGCGCGAGUGAUGUUCACGACUAGGACCGGGUCUAUGAGCU [theeternabot_exclusion_KL_Trp_B_28] | 843
15 | AUUAUCAAUUUAUUAUAUAACUUUUCAGAAGGAGCGUGGAAGUACACAGGUAGGUCGCUGAAUAUAGGACUAGUGAUGUUAGUUA [JR_Nu_SSArginiA_Sub024] | 266
16 | UGAUAGGACAGAAGGAGCGGUAGUGAUGUUGCCAAAAGGAUAAGGUGUCAAAAGACACCCUGCCAGGUAGGUCGCUGUCCUAUCU | 123

same assay, conditions: Eterna round: R107; input ligand: theophylline 20 uM

Row | Sequence | apparent KD of K4 kissing-loop reporter [nM]
17 | AAAUAGAUCAGUCACCCAGUGAUGUUGGAAGGAGCGUGCGAAAGCACAGGUAGGUCGCCAGAAUAAAAGUGGCUGAUCAAAAUAA | 513
18 | CAUACGCAUGGAGGAUAUGAGAAUUCUCAUGUCAUUUAAUAUUCUCAGUGAUGUUGAGGAUGUGGCUCAGAAGGCCAUGUGUAUG [Ex FMN B 21] | 366
19 | GGCUAGACUUAGCUAGGUACAUAAUACGAUACCAGUCUAGAAAUAGACCCUUGGCAGCGUAGGCAGUGAUGUUGCCACUAGCUGA [Theo B SS t7] | 144
20 | CGGCCGUUAUGAGAUACCAGAGUGGCGACCAGUGAUGUUGGUCGACGCUUGCGGUCGUCUCUCCCUUGGCAGCUUAGUACGAAAG [Inisar] | 73.8
21 | ACGGCGCUGGAACCAGUAAUGGGAAGAAUGCGAGGACCGGUACGGCCGCCACUCGCUUCCAGUGAUGUUGGAAGUGAGCCAACAA [Geerzaedre] | 277
22 | UAAGAAUAGCAUGCAGUGAUGUUGCAUGUCCGAGGACCGGUACGGCCGCCACUCGAGUCCUCGAACAUGCACCGAGGAAUAACAA [#19 K4 Tryptophan A Same State] | 107
23 | CGGCGGAGUGAUGUUCCACCUACUGCGGAUACCAGCUUUGCCAGAGGCCCUUGGCAGCCGCACGGCUCAGUGAUGUUGGGUUGCG [Same State Theophylline A G12] | 219
24 | ACGUCCGGGUUAAUCGUGGGCGUGGUGGAUACCAGUUCUUCAAUGAACCCUUGGCAGCCACGUGAGUGAUGUUCACGUGCGAUGA [#15 K4 Theophylline A Exclusion] | 88.7
25 | GUAUCGCUAGGAGGAUAUUUCAAUUUGACUCUUUGAGUUAAUACGGAGUGAUGUUCCGUUUUACGGAAAGAAGGCCUAGUGAUAC [FMN B 14] | 172
26 | AAUAUGAAGCAGUGAUGUUGCUUAUGAGAAGGAGCGCACGAAAGUGCAGGUAGGUCGCUCAGCCAAGUGGACGAAAACGUCCACA [whbob_SS_Arginine_A_sa107] | 87.2
27 | UGAUAGGACAGAAGGAGCGGAAGUGAUGUUUCCAAAAGGAUAAGGUGUCAAAAGACACCCUUCCAGGUAGGUCGCUGUCCUAUCU [ArgBX 13 #Palindromic #SwitchBubble #StaticStem] | 145
28 | GUAUGUGGAAACACGUACUUGUAUCCUAGGAAGGAUAUGCGGAAACGCAGAAGGUCCACCGGCGAGUUUAUCCAGUGAUGUUGGA [Ex FMN A 10] | 318
29 | CAGUUCCGUAGUGAUGUUACGAUCUCUGAUACCAGACAACUCUAAGUCCCUUGGCAGCAGUCAUUUUGCUUAAUAUUUACUCAAA [#08 K4 Theophylline A Exclusion] | 170
30 | CCUUUAGGCUCGGCCGCCACUCCAGUGAUGUUGGAGGUGCGUACAGAGCUAGAAAGCGUUAUCAGGAGGACCGGGAGUUUUAACG [Leorte] | 101
31 | GGCAUGGUGACGCGGCUGCCAUACGCUUGGGAGGAUAUGUUUCGUGACAGAAGGCCCAGUGAUGUUGGGUCUGUUCAAAAGGACU [Arisus] | 169
32 | AGAUUCGACACGGCCGCCACUUCCGGUGGCUGGUGUCAUGGUGCGCGUGAGUGAUGUUUAUGUGGGAGGACCGGGUGUUGAGUCU [whbob_Ex_Tryp_B_w42] | 559
33 | GGGAGAAGAGCGGCCGCCACUCAGAAAGAAGAAGAAUAUAGUGAUGUUAUAUAGGAAAGGAAGAAGAGGACCGGGCUUAAGAGGG [#18 K4 Tryptophan B Same State] | 177
34 | GGGUUGAGCGGAAGGAGCGGCUGAACCAGUGAUGUUGGUUAAUCCAAGUGAUGUUGGAAAAGCCAGGUAGGUCGCCGCUUUAUCC [Same State Arg B GF 3] | 965
35 | GGAUAGGACAGAGGAUAUGGUAGUGAUGUUACCAAACUGGUUACUCUUGUCAGAAAACUGGCAUCUCCAGAAGGCUGUCCUAUCG [KL-XFMN-B10] | 135
36 | AGGUACAAAAGUACCGCUAGAUCCACGGAAGGAGCGCGCGAAAGCGCAGGUAGGUCGCCGGGCAGUGAUGUUGCCGGAUCUAGCA [Omei KL Arginine A SS A v7] | 165
37 | CUGCCUCACUCGGCCGCCACUGUAUAAAUGUGACAGUGAUGUUGUCGUCGGAAAGGGCACUUAGGCAGGACCGGGAGUUUCAGGC [theeternabot_exclusion_KL_Trp_B_20] | 870
38 | AGACUACCACACUGUCAAUAGACAGUGAGCUAGGAUAUGCUGAUAAGCAGAAGGAGUGAUGUUCCUCGGUAGUCAAUAAAAUAAU [FmnAX 13 G29+C67] | 503
39 | ACGUCACGUAAACUCGUGGUUUCGAUCGAUACCAGUAGCGAGAGUUACCCUUGGCAGCGACAUGAGUGAUGUUCAUGUACGAAGA [KL-XTheoA1] | 102
40 | AGCGCCUAAGCCGAUACCAGAAACGCGGUGCGUCGCACGAUUAACUAGGAAAGUGAUGUUUUCCCUUGGCAGCGGGACCUGUGAG [theeternabot_exclusion_KL_Theo_B_11] | 133
